Results on two molecules are retold here after patent US20240376188A1 (UNIVERSITY OF NORTH CAROLINA AT CHAPEL HILL, published 2024).

For the experiment, the target named is T1, acetylated peptide at residue K280 (276QIIN-K-Ac-KLDLSNVQSC) (human).
T1 construct: Coated at 1 ug/ml on 96-well plates; also called acetylated tau peptide
T1 peptide: QIINK(Ac)KLDLSNVQSC
Briefly: peptide ELISA, peptide coated at 1 ug/ml, hybridoma supernatant diluted 1:10 to 1:2,500. The procedure: FIG. 13 includes an ELISA assay showing two K280 clones, 19B6 and 17G8, preferentially detect acetylated vs, non-acetylated tau peptides. Standard peptide ELISAs were performed with 1 μg/ml acetylated peptides at residue K280 (276QIIN-K-Ac-[…] (SEQ ID NO:17)) vs, non-acetylated peptides (276[…] (SEQ ID NO: 16)) and used to coat 96-well plates followed by washing with coating buffer (Phosphate Buffered Saline, pH 7.4) and incubated with serial dilutions of hybridoma supernatants (diluted from 1:10 to 1:2,500). Monoclonal antibodies were […] Horseradish peroxidase (HRP)-labeled secondary antibodies and colorimetric ELISAs were performed using a BMG/BioTek® multiplate reader at a standard absorbance setting of 450 nm with auto-mixing and blanking.
Background: In an ELISA, binding on a coated surface is turned into a signal by an enzyme label.

Ends that are not written are not given here.

B1: 19B6 (antibody, V domains shown)
VH: EVQLQQSGAEFVRPGASVKLSCTVSGLNIEDDYIQWLKQRPEQGLEWIGWIDPENGDPKYASKFQGKATLTADTSSKIAYLHLSSLTSEDTAVYYCATRGLWGQGTTLTVSS
VL: QIVLTQSPAIMSASLGERVTMTCTASSSVSSSYFHWYQQKPGSSPKLWIYSTSNLASGVPVRFSGSGSGTSYSLTISSMEAEDAATYYCHQYHRSPLTFGAGTKLELK
notes: Used as hybridoma supernatant in the peptide ELISA; also called Ac-K280 clone 19B6
Take B1: the binding result is listed as “binds”.

B2: 17G8 (antibody, V domains shown)
VH: EVQLQQSGAEFVRPGASVKLSCTVSGLNIEDDYIQWLKQRPEQGLEWIGWIDPENGDPKYASKFQGKATLTADTSSKIAYLHLSSLTSEDTAVYYCATRGLWGQGTTLTVSS
VL: QIVLTQSPAIMSASLGERVTMTCTASSSVSSSYFHWYQQKPGSSPKLWIYSTSNLASGVPVRFSGSGSGTSYSLTISSMEAEDAATYYCHQYHRSPLTFGAGTKLELK
notes: Used as hybridoma supernatant in the peptide ELISA; also called Ac-K280 clone 17G8
Turning to B2, the binding result is given as “binds”.
